From article PMC9951844 (Nature Communications, 2023)

B1: YB9-258 Fab (Fab, V domains shown)
VH: EVQLVESGGGLIQPGGSLRLSCAASGLTVSSNYMHWVRQAPGKGLEWVSVLYAGGSAFYADSVKGRFTISRNNSKNTLYLQMNSLRAEDTAIYYCARGLGDYLDSWGQGTLVTVSS
VL: DIQMTQSPSSVSASVGDRVTITCRASQGIGSWLAWYQQKPGKAPQLLIYAASTLQSGVPPRFSGSGSGTDFTLTITSLQPEDFASYYCQQANSVLALTFGGGTKVEIK
B2: YB13-292 Fab (Fab, V domains shown)
VH: EVQLVESGGGLVKPGGSLRLSCAASGFSFITYNMNWVRQAPGKGLEWVSSISSNILSSTSYIYYADSVKGRFTISRDDAANSLFLQMNSLRVEDTAQYYCARTRSRSVRNCTSATCPVDAFDLWGQGTMVIVSS
VL: DIVLTQSPLSLPVTPGEPASISCRSSQSLLRSNGYNYLDWYLQKPGQSPHLLIYLGSNRASGVPDRFSGSGSGTDFTLKISRVEAEDVGVYYCMQALQTPYTFGQGTNLEIK
B3: R1-32 Fab (Fab, V domains shown)
VH: EVQLVESGAEVKKPGSSVKVSCKASGGTFSSYAISWVRQAPGQGLEWMGGIIPILGIANYAQKFQGRVTITADKSTSTAYMELSSLRSEDTAVYYCARENGYSGYGAAANFDLWGRGTLVTVSS
VL: QSVLTQPPSVSGAPGQRVTISCTGSSSNIGAGYDVHWYQQLPGTAPKLLIYGNSNRPSGVPDRFSGSKSGTSASLAITGLQAEDEADYYCQSYDSSLSGSVFGGGTKLTVL

Legend:
[1] = molecular target: S-GSAS/6P/Wildtype (SARS-CoV-2 hCoV-19/Wuhan/WIV04/2019, UniProt P0DTC2, proline substitution at residue 817 | proline substitution at residue 892 | …); assay: cryo-EM structure; settings: both partners purified
[2] = molecular target: S-R/6P/Omicron BA.1 (SARS-CoV-2 Omicron BA.1 (B.1.1.529), S371L | S373P | S375F | K417N | A484 | proline substitution at residue 817 | …); assay: cryo-EM structure; settings: both partners purified

Binder | stoichiometry N [1] | stoichiometry N [2]
B1 | 3 Fabs per spike trimer (3:3:3) | –
B2 | – | 3 Fabs per spike trimer (3:3 protomer:Fab)
B3 | 3 Fabs per spike trimer (3:3:3) | –
